Substitutions are numbered along the chain they refer to.
B1: F6-70 (antibody, V domains shown)
VH: QVQLVESGGGVVQPGRSLRLSCAASGFTFKNFAMHWVRQAPGKGLEWVAAVSYDGTSKYQADSVKGRFTISRDNSKNTLYLQMNSLRAEDTAVYYCARVESSGSGHYSYLGYFYCMDVWGKGTTVTVSS
VL: QSALTQPASVSASPGQSITISCTGTRNDVGGYEYVSWYQQHPDKAPKLMIFDVSNRPSGVSNRFSGSKSGNTASLTISGLQAEDEADYYCSSYTINNTLVFGGGTKVTVL
B2: F6-115 (antibody, V domains shown)
VH: QLQLHQRGAGLLKPSETLSLTCDVYGGSVSDDEWTWIRQSPGKGLEWIGQIDRTGSSNYNPSLRSRVTISPDTSNNQFSMSLTSVTAADTALYFCARGGLVVTDVGRGWDAFDVWGQGTMVTVSS
VL: DIQMTQSPSSVSASVGDRITITCRASQHINNWLAWYQQKPGEAPKLLIYAASTLQRGVPSRFSGSGSGTRFTLTITSLQPEDFASYFCQQGDSFPLTFGGGTKVEIK
B3: F6-133 (antibody, V domains shown)
VH: EVQVVESGGGLVQPGGSLRLSCAASSFSVTGSYMTWVRQAPGKGLESVSLIYSTGSTYYADSVKGRFVISRDDSKNILFLQMNNLRVEDTGVYFCARLGPAGGSWSWEFYGLDVWGQGTTVTVFS
VL: CVQMTQSPSFLSASVGDRVTISCRASQGTTSYLAWYQQKPGKAPKLLIYGVSTLQTGVPSRFSGSGSGTDFTLTISNLQPEDFATYYCQQVNIFPYTFGPGTKVEIK
B4: F6-215 (antibody, V domains shown)
VH: QEQSVQSGPEVKKPGASVKVSCRASEFTFSTDFIHWVRQAPGQGLEWMGRITPSDGTTTYAPKFQGRVAVTRDPSTKNVYIQLTRLKSEDTAVYYCVAYDRATTSAGAGATDIWGQGTLVTVSS
VL: DIVMTQSPLSLPVTPGEPASISCRSSQSLLHGDGYNYLDWYLQRPGRSPQLLIYLGSHRASGVPDRFSGSGSGTDFTLRISRVEAEDVGIYYCMQGLQTPFTFGPGTKVDIK
B5: F6-213 (antibody, V domains shown)
VH: QEQLVQSGAEVKRPGTSVKVSCKASGYAFTDYSIHWVRQAPGVGLEWMGKIYPGDGHALYAQNFQGRVTLTRDTSTASVYMELRSLRSQDTAVYYCVAYERATTLAGAGASDIWGQGTMVTVSS
VL: B4 VL with H31Q, G32S, L38M, R44K, E84K, G96S, T99S
B6: F6-210 (antibody, V domains shown)
VH: QERLAQSGTEVKKPGASVKVSCRALGYTFSDYSIHWVRQAPRQGLEWMGKINTSGGTTTYAQKFQARVTLTSDTSTSTASMELSSLKIEDTAVYYCVAYERATTLAGAGASDIWGQGTLVTVSS
VL: DIVMTQSPLSLPVTPGEPASISCRSSQSLLHSDGYNYLDWYLQKPGQSPHLLIYLGSNRASGVPDRFSGSGSGTDFTLKITRVEPEDVGVYYCMQSLQTPFTFGPGTKVDVK
B7: F6-132 (antibody, V domains shown)
VH: QEQSVQSGAEVKKPGASVKVSCRASEFTFSTDFIHWVRQAPGQGLEWMGRITPSDGTTTYAQKFQGRVTMTRDPSTNTVYIELRRLKSEDTAVYYCVAYDRVTTSAGTGASDIWGQGTMVTVSS
VL: B4 VL with R44K
B8: F6-153 (antibody, V domains shown)
VH: QVQLQQWGAGLLRPSETLSLTCAVSGVSLSGDYLTWIRQTPGKGLEWIGEINHSGSTNYNPSLKSRVTISVETSKNHFSLKMRSVTAADSALYYCARGWEYCHGTTCYSKAFDIWGQGTLVTVSS
VL: DIQMTQSPSSLSASVGDRVTITCQASQDISNYLIWYQQKPGRAPKLLIFDASKLEKGVPPRFSGSGSGTYFTFTISSLQPEDFATYYCQQFHNLPVTFGGGTKLETK
B9: F6-207 (antibody, V domains shown)
VH: QITLKESGPTLLKPTQTLTLTCTFSGFSLTTTGVAVGWVRQPPGKALEWLALIYWDDDKRYSPSLKSRVTITKDTSKNQVLLAMTDMDPVDTATYYCAHFDYGDPEVVALFEYSYYMDVWGKGITVTVSS
VL: QSVLTQPPSVSGTPGQRVTISCSGSSSNIGSNYVYWYQHLPGTAPKLLIYTNNRRPSGVPDRFSGSKSGTSASLAVSGLRSEDEADYFCAVWDDSVGGHWVFGGGTKLTVL
B10: F6-124 (antibody, V domains shown)
VH: QVQLVQSGTEVKKPGASVKISCKASGYTFTGNAINWVRQAPGQGLEWLGWISVNNGNTKYVQKFQGRVTMTTDTSTSTAYMELRSLGSDDTAVYYCAREVVNYGSGSLNFDSWGQGTLVTVSS
VL: SYELTQPPSVSVSPGQTVSISCSGDKLGNDYVSWYQQKPGQSPVLVIYEDSKRPSGIPERFSGSNSGNTATLTISGTQAMDESDYYCQAWDGSTVIFGGGTKLTVL
B11: F6-208 (antibody, V domains shown)
VH: QVQLEESGGGVVQPGTSLRLSCSSSGVTRNTYAVHWVRQVPGKGLEWLAATSYDGTSKYYPENGHGRVSISKEYSTNMVYLEIYNLRPEDTAVYFCAKGPQGIYSYIGYFYYMDVWGKGTTVTVSS
VL: QSALTQPASVSGSPGQSITLSCTGSRDDVGDYDYVSWYQHHPGKAPRLIIYDVTSRPSGVSPRFSGSKSGNTASLTISGLQADDEADYYCNSYTSSNSVVFGGGTKVTVL
B12: F6-141 (antibody, V domains shown)
VH: QVQLAQSGAEVRRPGTSVKVSCRSSAYDFIDDSIHWVRQAPGQGLEWMGRIDPSGDTTTYAPQFQVRITLTRDTSTSTASMELNRLTSQDTAMYYCVAYERATTLAGVGASDVWGQGTWVTVSS
VL: DIVMTQSPLSLSVTPGEPASISCRSSQSLLYRDGYNYLDWYLQKPGQSPQLLLYFASYRASGVPDRFSGSGSGTDFTLTITRVEPEDVGIYYCMQSLQTPFTFGPGTKLDFK
B13: F6-227 (antibody, V domains shown)
VH: QVQLQQSGPGLVKPSETLSLACSVSGGSMSDFYWSWIRQSPGTGLEWIGYVHHSGKVNYNPSLKARVTMSLDTSKYLLSLNLASMTAADSAVYYCAATSAFVDSSSYSPPYFDFWGQGTLITVSS
VL: DIQLTQSPSSLSASVGDRVTITCQASHDITNYLNWYQQTPGKAPRLLIYVATNLETGVPSRFSGSGSGTHFTLTISSLQPEDSATYYCQQYDNLPITFGGGTRVEIR
B14: F6-61 (antibody, V domains shown)
VH: QVTLRQSGPALVKPTQTLTLTCTFSGFSLSTRGMCVNWIRQPPGKALEWLARIDWDDDKYYTTSLKTRLTISKDTAKNHVVLSMTNMDPVDTATYYCARIRCYDYVWGDDEVFDIWGQGTMVSVSS
VL: QSVLTQPPSASGTPGQSVTISCSGSTSNIGSNNVNWYQQLPGAAPKLVIHTNDQRPSRVPDRFSGSTSGTSASLAISGLQSEDEADYYCAAWDDSLNGLLFGGGTKLTVL
B15: F6-172 (antibody, V domains shown)
VH: EEQLVESGGGLVQPGGSLKLSCAASGFILSDSTVHWVRQASGRGLEWVGRIANGYATSYAASVKGRFTISTDDSGNTAYLEMNSLKTEDTAVYYCTSRSVVVTDVGAGRDDYWGQGTLVTVSS
VL: DIVMTQSPLSLPVTPGEPASISCRSSQSLLHRNGYNYLDWYLQKPGQSPQLLIWLGSNRASGVPDRFSGSGSGTDFTLTISRVEAEDVGVYYCMQDLQTPPTFGGGTKVEIM
B16: F6-27 (antibody, V domains shown)
VH: QEQLMESGGDVVRPGTSLTLSCKASGFAFRSHALHWVRQAPGKGLEWVSVISYDGGHTNSADSLEGRFTVSRDNSKNILYLQMNSLRTEDTAVYFCARSEGSYRSWPGYFYYMDVWGNGTTVTVSS
VL: QSALTQPASVSGSPGQSITISCIGTSSDVGGYYYVSWYQQHPGRAPKLIIFDVTDRPSGVSSRFSGSQSGNTASLTISGLQPEDEADYYCNSYSSSTIPYVFGSGTKVTVL
B17: F6-65 (antibody, V domains shown)
VH: QVQLVESGGGLVQPGDSLRLSCAASGFTFKSYGLHWVRQAPGKGLEWVAGLSYDGFSGYYADSVKGRFTVSRDNSKNTLYLHINSLRSEDTSIYYCARGGDGEIFSWIGYFYYMDVWGKGTTVTVFS
VL: QSALTQPASVSGSPGQSITISCSGTTNDVGGYDYVSWYQHHPGKAPKLLIYDVSQRPSGVSSRFSGSKSGNTASLTISGLQTDDEAHYYCSSYTITNTLKFGGGTTLTVL
B18: F6-38 (antibody, V domains shown)
VH: QVQLEESGGGVVQPGRSLTLSCAASGFTLKNYAIHWVRQAPGKGLEWVAVTAYDGFTSYYADSVKSRITISRDNSKNTAYLHLNNVRDDDAAFYYCARGGEGAFSWLGYLQYMDVWGRGTTVAVSS
VL: QSTLTQPASASGSPGQSITISCTGTSNDIGSYTYVSWYQHHPGKAPKLMIYDVNERPSGISHRFSGSKSGNTASLTISGLQPEDEADYYCNSYTINNTLKFGGGTRLTVL
B19: F6-88 (antibody, V domains shown)
VH: QVQLVQSGAEVKKPGASVRVSCGASGNSFTRHGFSWVRQAPGQGLEWIGLISAHKSNTIYAQKFQGRVTVTTDTSTSTAYMELRSLRSDDTAVYYCVRDVTVVTDVGSGYDFPMDVWGQGTTVTVSS
VL: QSVLTQSPSASGTPGQRVTISCSGSNSNIGGDYVHWYQQVPGTAPRLLIYNTNQRPSGVPDRFSGSKSGTSGSLAISGLRSEDEADYYCATWDDSLNGWVFGGGTKLTVL
B20: F6-63 (antibody, V domains shown)
VH: QVQVVESGGGVVEPGGSLSLSCAASGFSFKMHAMHWVRQAPGKGLEWVAFIPYDGSSQYYADSVKGRFTIYRDNFKNTLYLQMNSLRVEDTSLYYCARGGEEGAWSWIGYNSYMDVWGRGTAVTVSS
VL: QSALTQPASVSGSPGQSITISCSGTSSDVGGYDYVCWYQKHPGESPRLIIYDVSRRPSGVSNRFSGSKSGNTASLTISGLQAEDEADYSCSSYTSSNTLIFGGGTKLTVL

Biological target: RSV A2 pre-F (RSV A2)
Experiment: ELISA

Row | Binder | EC50 [µg/mL]
1 | B1 | 0.0585
2 | B2 | 0.0117
3 | B3 | 0.0494
4 | B4 | 0.0289
5 | B5 | 0.0298
6 | B6 | 0.0281
7 | B7 | 0.0167
8 | B8 | 0.018
9 | B9 | 0.0354
10 | B10 | 0.0147
11 | B11 | 0.0198
12 | B12 | 0.0166
13 | B13 | 0.0226
14 | B14 | 0.0613
15 | B15 | 0.0183

Biological target: RSV A2 pre-F (RSV A2)
Experiment: BLI

Row | Binder | Kd [nM]
16 | B1 | 2.11
17 | B2 | < 0.001
18 | B3 | 0.0669
19 | B4 | 0.815
20 | B5 | 1.29
21 | B6 | 0.106
22 | B7 | < 0.001
23 | B8 | < 0.001
24 | B9 | 0.291
25 | B10 | < 0.001
26 | B11 | 0.0533
27 | B12 | < 0.001
28 | B13 | 0.169
29 | B14 | 3.25
30 | B15 | < 0.001

Biological target: RSV A2 pre-F (RSV A2)
Experiment: ELISA
Remark: another data set of the same source

Row | Binder | EC50 [µg/mL]
31 | B16 | 0.00987
32 | B17 | 0.00998
33 | B18 | 0.00712
34 | B19 | 0.0169
35 | B20 | 0.0161

Biological target: RSV A2 pre-F (RSV A2)
Experiment: BLI
Remark: another data set of the same source

Row | Binder | Kd [nM]
36 | B16 | 0.671
37 | B17 | 0.96
38 | B18 | 1.38
39 | B19 | 0.86
40 | B20 | 0.783

From patent US20260327294 (published 2026)
